Experimental data from publication doi:10.1101/2023.06.21.545551.

Biological target: MYC(352–437):MAX(22–102) heterodimer (human) (UniProt P61244)
Experiment: NMR titration

Sequence of MYC(352–437):MAX(22–102) heterodimer (human) (P61244 whole entry, looked up, tested part not stated, one chain of several): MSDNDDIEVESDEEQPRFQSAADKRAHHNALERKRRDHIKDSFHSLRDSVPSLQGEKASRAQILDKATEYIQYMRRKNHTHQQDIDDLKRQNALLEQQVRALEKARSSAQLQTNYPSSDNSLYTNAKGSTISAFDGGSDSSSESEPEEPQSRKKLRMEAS

MYC(11–34), Mb0 peptide was tested. Which Kd did it give?
Its Kd is 7 µM.
